Measurements published in patent US20220119517A1 (NANJING SANHOME PHARMACEUTICAL, published 2022).

Assays:
[1] = molecular target: T1, antigen protein Claudin18.2-His (human, UniProt P56856-2 1-261, limits assumed); test: BLI (Fortebio Octet RED96), antibody on AHC sensor, Claudin18.2-His in solution, 37 °C
T1 construct: also called CLDN18.2 protein
Description: Next, antibodies were immobilized by the AHC sensor, and then combined with different concentrations of antigens, and determination of the affinity was performed according to the manual of Octet RED96.

[2] = molecular target: T2, human Claudin18.2 (CLDN18.2), full length, on cells (human); test: FACS on NUGC4 cells
T2 construct: also called CLDN18.2-FL; HEK293-CLDN18.2 cells
From the text: (§1) Human gastric cancer cells NUGC4 and stably transfected cells CHO-K1-CLDN18.1 (prepared in Example 5) were used respectively, to verify the specificity and affinity of the anti-CLDN18.2 antibodies above at the cellular level by FAGS technology. After antibody affinity maturation and screening in vitro, each antibody can bind to the CLDN18.2 target on NUGC4 cells, but not to CHO-K1-CLDN18.1 cells, as compared with the original 3CHI antibody.

[3] = molecular target: T3, human Claudin18.1 (CLDN18.1), full length, on cells (human, UniProt P56856 1-261); test: FACS on CHO-K1-CLDN18.1 cells
T3 construct: HEK293-CLDN18.1 cells carry a fusion with green fluorescent protein (ZsGreen); CHO-K1-CLDN18.1 cells carry pcDNA3.1-CLDN18.1; The cell line is named under assay; also called CLDN18.1-FL; HEK293-CLDN18.1 cells
From the text: as §1

[4] = molecular target: T3, human Claudin18.1 (CLDN18.1), full …; test: cellular ELISA
[5] = molecular target: T2, human Claudin18.2 (CLDN18.2), full …; test: cell-based or functional assay
[6] = molecular target: T2, human Claudin18.2 (CLDN18.2), full …; test: cellular ELISA

| Binder | MFI (CLDN18.2) [2] | MFI (CLDN18.1) [3] | binding result [4] | binding result [6] | also measured |
| --- | --- | --- | --- | --- | --- |
| 302CHI (antibody, V domains shown, chimeric with the constant region of human IgG1) VH: EVKLVESGGGLVQPGGSLKLSCAASGFTFSDYGMAWVRQAPRKGPEWVAFISNLAYSIYYADTVTGRFTISRENAKNTLYLEMSSLRSEDTAMYYCARLGYGNSFAYWGQGTLVTVSA VL: DIVMTQSPSSLTVTAGEKVTMSCKSSQSLLNSGNQKNYLTWYQQKPGQPPKLLIYWASTRESGVPDRFTGSGSGTDFTLTISSVQAEDLAVYYCQNDYSLPFTFGAGTKLELK | – | – | no binding | binds | – |
| 324CHI (antibody, human IgG1, V domains shown, chimeric with the constant region of human IgG1) VH: EVKLVESGGGLVQPGGSLKLSCAASGFTFSDYGMAWVRQAPRKGPEWVAFISNLAYSIYYADTVTGRFTISRENAKNTLYLEMSSLRSEDTAMYYCARLGYGNSFAYWGQGTLVTVSA VL: DIVMTQSPSSLTVTAGEKVTMSCKSSQSLLNSGNQKNYLTWYQQKPGQPPKLLIYWGSTRESGVPDRFTGSGSGTDFTLTISSVQAEDLAVYYCQNELFYPLTFGAGTKLELK | 36000 MFI | 248 MFI | no binding | – | – |
| 301CHI (antibody, V domains shown, chimeric with the constant region of human IgG1) VH: EVKLVESGGGLVQPGGSLKLSCAASGFTFSDYGMAWVRQAPRKGPEWVAFISNLAYSIYYADTVTGRFTISRENAKNTLYLEMSSLRSEDTAMYYCARLGYGNSFAYWGQGTLVTVSA VL: DIVMTQSPSSLTVTAGEKVTMSCKSSQSLLNSGNQKNYLTWYQQKPGQPPKLLIYWASTRESGVPDRFTGSGSGTDFTLTISSVQAEDLAVYYCQNNYYYPLTFGAGTKLELK | 44400 MFI | 114 MFI | no binding | – | – |
| 307CHI (antibody, V domains shown, chimeric with the constant region of human IgG1) VH: EVKLVESGGGLVQPGGSLKLSCAASGFGFSDYGMAWVRQAPRKGPEWVAFISNSAYSIYYADTVTGRFTISRENAKNTLYLEMSSLRSEDTAMYYCARLGYGNSFAYWGQGTLVTVSA VL: DIVMTQSPSSLTVTAGEKVTMSCKSSQSLLNSGNQKNYLTWYQQKPGQPPKLLIYWASTRESGVPDRFTGSGSGTDFTLTISSVQAEDLAVYYCQNNYYYPLTFGAGTKLELK | – | – | no binding | binds | – |
| 315CHI (antibody, human IgG1, V domains shown, chimeric with the constant region of human IgG1) VH: EVKLVESGGGLVQPGGSLKLSCAASGFTFSDYGMAWVRQAPRKGPEWVAFISNLAYSIYYADTVTGRFTISRENAKNTLYLEMSSLRSEDTAMYYCARLGRGNSFAYWGQGTLVTVSA VL: DIVMTQSPSSLTVTAGEKVTMSCKSSQSLLNSGNQKNYLTWYQQKPGQPPKLLIYWASTRESGVPDRFTGSGSGTDFTLTISSVQAEDLAVYYCQNELFYPLTFGAGTKLELK | 42300 MFI | 65 MFI | no binding | – | – |
| 313CHI (antibody, V domains shown, chimeric with the constant region of human IgG1) VH: EVKLVESGGGLVQPGGSLKLSCAASGFTFSDYGMAWVRQAPRKGPEWVAFISNLAYSIYYADTVTGRFTISRENAKNTLYLEMSSLRSEDTAMYYCARLGRGNSFAYWGQGTLVTVSA VL: DIVMTQSPSSLTVTAGEKVTMSCKSSQSLLNSGNQKNYLTWYQQKPGQPPKLLIYWASTRESGVPDRFTGSGSGTDFTLTISSVQAEDLAVYYCQNNYYYPLTFGAGTKLELK | – | – | no binding | binds | – |
| 312CHI (antibody, human IgG1, V domains shown, chimeric with the constant region of human IgG1) VH: EVKLVESGGGLVQPGGSLKLSCAASGFTFSRYGMAWVRQAPGKGPEWVAFISNSAYSIYYADTVTGRFTISRENAKNTLYLEMSSLRSEDTAMYYCARLGYGNSFAYWGQGTLVTVSA VL: DIVMTQSPSSLTVTAGEKVTMSCKSSQSLLNSGNQKNYLTWYQQKPGQPPKLLIYWASTRESGVPDRFTGSGSGTDFTLTISSVQAEDLAVYYCQNELFYPLTFGAGTKLELK | – | – | no binding | binds | – |
| 322CHI (antibody, human IgG1, V domains shown, chimeric with the constant region of human IgG1) VH: EVKLVESGGGLVQPGGSLKLSCAASGFTFSDYGMAWVRQAPRKGPEWVAFISNLAYSIYYADTVTGRFTISRENAKNTLYLEMSSLRSEDTAMYYCARLGYGNSFAYWGQGTLVTVSA VL: DIVMTQSPSSLTVTAGEKVTMSCKSSQSLLNSGNQKNYLTWYQQKPGQPPKLLIYWGSTRESGVPDRFTGSGSGTDFTLTISSVQAEDLAVYYCQNNYYYPLTFGAGTKLELK | 44800 MFI | 57 MFI | no binding | – | – |
| 319CHI (antibody, V domains shown, chimeric with the constant region of human IgG1) VH: EVKLVESGGGLVQPGGSLKLSCAASGFGFSDYGMAWVRQAPRKGPEWVAFISNSAYSIYYADTVTGRFTISRENAKNTLYLEMSSLRSEDTAMYYCARLGRGNSFAYWGQGTLVTVSA VL: DIVMTQSPSSLTVTAGEKVTMSCKSSQSLLNSGNQKNYLTWYQQKPGQPPKLLIYWASTRESGVPDRFTGSGSGTDFTLTISSVQAEDLAVYYCQNNYYYPLTFGAGTKLELK | – | – | no binding | binds | – |

Now from value to binder, other results behind:

| MFI (CLDN18.2) [2] | MFI (CLDN18.1) [3] | binding result [4] | binding result [6] | Binder | also measured |
| --- | --- | --- | --- | --- | --- |
| 38900 MFI | 68 MFI | no binding | – | 305CHI (antibody, human IgG1, V domains shown, chimeric with the constant region of human IgG1) VH: EVKLVESGGGLVQPGGSLKLSCAASGFTFSDYGMAWVRQAPRKGPEWVAFISNLAYSIYYADTVTGRFTISRENAKNTLYLEMSSLRSEDTAMYYCARLGYGNSFAYWGQGTLVTVSA VL: DIVMTQSPSSLTVTAGEKVTMSCKSSQSLLNSGNQKNYLTWYQQKPGQPPKLLIYWASTRESGVPDRFTGSGSGTDFTLTISSVQAEDLAVYYCQNELFYPLTFGAGTKLELK | Kd [1]: 0.865 nM; koff [1]: 4.44e-05 s⁻¹; kon [1]: 51300 M⁻¹ s⁻¹; in-vitro ADCC activity, Jurkat-CD16A/NF luciferase reporter, EC50 [5]: 0.28 nM; in-vitro ADCC activity, Jurkat-CD16A/NF luciferase reporter, Top [5]: 216000 |
| – | – | no binding | binds | 304CHI (antibody, V domains shown, chimeric with the constant region of human IgG1) VH: EVKLVESGGGLVQPGGSLKLSCAASGFGFSDYGMAWVRQAPRKGPEWVAFISNSAYSIYYADTVTGRFTISRENAKNTLYLEMSSLRSEDTAMYYCARLGYGNSFAYWGQGTLVTVSA VL: DIVMTQSPSSLTVTAGEKVTMSCKSSQSLLNSGNQKNYLTWYQQKPGQPPKLLIYWASTREPGVPDRFTGSGSGTDFTLTISSVQAEDLAVYYCQNDYSYPLTFGAGTKLELK | – |
| 38200 MFI | 85 MFI | no binding | – | 303CHI (antibody, V domains shown, chimeric with the constant region of human IgG1) VH: EVKLVESGGGLVQPGGSLKLSCAASGFTFSRYGMAWVRQAPGKGPEWVAFISNSAYSIYYADTVTGRFTISRENAKNTLYLEMSSLRSEDTAMYYCARLGYGNSFAYWGQGTLVTVSA VL: DIVMTQSPSSLTVTAGEKVTMSCKSSQSLLNSGNQKNYLTWYQQKPGQPPKLLIYWGSTRESGVPDRFTGSGSGTDFTLTISSVQAEDLAVYYCQNDYSYPLTFGAGTKLELK | – |
| – | – | no binding | binds | 306CHI (antibody, V domains shown, chimeric with the constant region of human IgG1) VH: EVKLVESGGGLVQPGGSLKLSCAASGFTFSDYGMAWVRQAPRKGPEWVAFISNLAYSIYYADTVTGRFTISRENAKNTLYLEMSSLRSEDTAMYYCARLGRGNSFAYWGQGTLVTVSA VL: DIVMTQSPSSLTVTAGEKVTMSCKSSQSLLNSGNQKNYLTWYQQKPGQPPKLLIYWASTRESGVPDRFTGSGSGTDFTLTISSVQAEDLAVYYCQNDYSFPLTFGAGTKLELK | – |
| – | – | no binding | binds | 328CHI (antibody, human IgG1, V domains shown, chimeric with the constant region of human IgG1) VH: EVKLVESGGGLVQPGGSLKLSCAASGFGFSDYGMAWVRQAPRKGPEWVAFISNSAYSIYYADTVTGRFTISRENAKNTLYLEMSSLRSEDTAMYYCARLGRGNSFAYWGQGTLVTVSA VL: DIVMTQSPSSLTVTAGEKVTMSCKSSQSLLNSGNQKNYLTWYQQKPGQPPKLLIYWGSTRESGVPDRFTGSGSGTDFTLTISSVQAEDLAVYYCQNNYYYPLTFGAGTKLELK | – |
| 42500 MFI | 78 MFI | no binding | – | 309CHI (antibody, human IgG1, V domains shown, chimeric with the constant region of human IgG1) VH: EVKLVESGGGLVQPGGSLKLSCAASGFGFSDYGMAWVRQAPRKGPEWVAFISNSAYSIYYADTVTGRFTISRENAKNTLYLEMSSLRSEDTAMYYCARLGYGNSFAYWGQGTLVTVSA VL: DIVMTQSPSSLTVTAGEKVTMSCKSSQSLLNSGNQKNYLTWYQQKPGQPPKLLIYWASTRESGVPDRFTGSGSGTDFTLTISSVQAEDLAVYYCQNELFYPLTFGAGTKLELK | – |
| – | – | no binding | binds | 308CHI (antibody, V domains shown, chimeric with the constant region of human IgG1) VH: EVKLVESGGGLVQPGGSLKLSCAASGFGFSDYGMAWVRQAPRKGPEWVAFISNSAYSIYYADTVTGRFTISRENAKNTLYLEMSSLRSEDTAMYYCARLGYGNSFAYWGQGTLVTVSA VL: DIVMTQSPSSLTVTAGEKVTMSCKSSQSLLNSGNQKNYLTWYQQKPGQPPKLLIYWASTRESGVPDRFTGSGSGTDFTLTISSVQAEDLAVYYCQNDYSLPFTFGAGTKLELK | – |
| 46300 MFI | 299 MFI | no binding | – | 321CHI (antibody, human IgG1, V domains shown, chimeric with the constant region of human IgG1) VH: EVKLVESGGGLVQPGGSLKLSCAASGFGFSDYGMAWVRQAPRKGPEWVAFISNSAYSIYYADTVTGRFTISRENAKNTLYLEMSSLRSEDTAMYYCARLGRGNSFAYWGQGTLVTVSA VL: DIVMTQSPSSLTVTAGEKVTMSCKSSQSLLNSGNQKNYLTWYQQKPGQPPKLLIYWASTRESGVPDRFTGSGSGTDFTLTISSVQAEDLAVYYCQNELFYPLTFGAGTKLELK | – |
